Laboratory results: patent publication US10927178B2, “Anti-CXCR4 antibodies and antibody-drug conjugates” (PFIZER INC., priority 2013, dated 2021)
Residue numbers refer to the chain shown, from its start. Names may count otherwise.

B1: h3G10.1.91.A58B: humanized anti-CXCR4 antibody; VH h3G10.1.91 SEQ ID NO:33, VL h3G10.A58B SEQ ID NO:73 (antibody, V domains shown)
VH: EVQLVESGGGLVQPGGSLRLSCAASGFTFSDYYMSWVRQAPGKGLEWVGFIRHKANFETTEYSTSVKGRFTISRDDSKNSLYLQMNSLKTEDTAVYYCARDLPGFAYWGQGTLVTVSS
VL: DIVMTQSPDSLAVSLGERATINCKSSQSLFNSHTRKNYLAWYQQKPGQPPKLLIYWASARGSGVPDRFSGSGSGTDFTLTISSLQAEDVAVYYCKQSFNLRTFGGGTKVEIK
B2: h3G10.2.37 VH/h3G10.2.72 VL: Fab; VH SEQ ID NO:35, VL SEQ ID NO:49 (antibody, V domains shown)
VH: B1 VH with E58Y, T60R
VL: B1 VL with H33R, G61E, N99R
modifications: Fab
B3: h3G10.A57 VH/h3G10 VL: Fab; VH SEQ ID NO:23, VL SEQ ID NO:47 (antibody, V domains shown)
VH: B1 VH with E58Y
VL: B1 VL with H33R, G61E
modifications: Fab
B4: h3G10.A57 VH/h3G10.A58B VL: Fab; VH SEQ ID NO:23, VL SEQ ID NO:73 (antibody, V domains shown)
VH: B1 VH with E58Y
VL: B1 VL
modifications: Fab
B5: h3G10.B44 VH/h3G10.2.72 VL: Fab; VH SEQ ID NO:25, VL SEQ ID NO:49 (antibody, V domains shown)
VH: B1 VH with G49S, E58Y, D76N, S80T, K89R, T90A, R100K
VL: B1 VL with H33R, G61E, N99R
modifications: Fab
B6: h3G10.A57 VH/h3G10.A58A VL: Fab; VH SEQ ID NO:23, VL SEQ ID NO:57 (antibody, V domains shown)
VH: B1 VH with E58Y
VL: B1 VL with N99R
modifications: Fab
B7: h3G10.B44 VH/h3G10.B12 VL: Fab; VH SEQ ID NO:25, VL B12 (probably B12A, SEQ ID NO:61) (antibody, V domains shown)
VH: B1 VH with G49S, E58Y, D76N, S80T, K89R, T90A, R100K
VL: B1 VL with H33R, A40L, G61E, N99R
B8: h3G10.A57 VH/h3G10.B12 VL: Fab; VH SEQ ID NO:23, VL B12 (probably B12A, SEQ ID NO:61) (antibody, V domains shown)
VH: B1 VH with E58Y
VL: B1 VL with H33R, A40L, G61E, N99R
modifications: Fab
B9: h3G10.2.37 VH/h3G10.A58B VL: Fab; VH SEQ ID NO:35, VL SEQ ID NO:73 (antibody, V domains shown)
VH: B1 VH with E58Y, T60R
VL: B1 VL
modifications: Fab
B10: h3G10.1.91 VH/h3G10.A58A VL: Fab; VH SEQ ID NO:33, VL SEQ ID NO:57 (antibody, V domains shown)
VH: B1 VH
VL: B1 VL with N99R
modifications: Fab
B11: h3G10.1.91 VH/h3G10.2.72 VL: Fab; VH SEQ ID NO:33, VL SEQ ID NO:49 (antibody, V domains shown)
VH: B1 VH
VL: B1 VL with H33R, G61E, N99R
modifications: Fab
B12: h3G10.B44 VH/h3G10.A11 VL: Fab; VH SEQ ID NO:25, VL A11 (probably A11A, SEQ ID NO:51) (antibody, V domains shown)
VH: B1 VH with G49S, E58Y, D76N, S80T, K89R, T90A, R100K
VL: B1 VL with S26A, H33R, G61E, N99R
modifications: Fab
B13: h3G10.2.37 VH/h3G10.A58A VL: Fab; VH SEQ ID NO:35, VL SEQ ID NO:57 (antibody, V domains shown)
VH: B1 VH with E58Y, T60R
VL: B1 VL with N99R
modifications: Fab
B14: h3G10.A57 VH/h3G10.2.72 VL: Fab; VH SEQ ID NO:23, VL SEQ ID NO:49 (antibody, V domains shown)
VH: B1 VH with E58Y
VL: B1 VL with H33R, G61E, N99R
modifications: Fab
B15: h3G10 VH/h3G10 VL: Fab; VH SEQ ID NO:21, VL SEQ ID NO:47 (antibody, V domains shown)
VH: B1 VH with F57G, E58Y
VL: B1 VL with H33R, G61E
modifications: Fab
B16: h3G10.A57 VH/h3G10.A11 VL: Fab; VH SEQ ID NO:23, VL A11 (probably A11A, SEQ ID NO:51) (antibody, V domains shown)
VH: B1 VH with E58Y
VL: B1 VL with S26A, H33R, G61E, N99R
modifications: Fab
B17: h3G10.1.91 VH/h3G10.A58B VL: Fab; VH SEQ ID NO:33, VL SEQ ID NO:73 (antibody, V domains shown)
VH: B1 VH
VL: B1 VL
modifications: Fab

How the values were obtained:
OPM-2-Luc MM cells = assay: Systemic OPM-2-Luc multiple myeloma model; format: in vivo, mouse
Description: Humanized anti-CXCR4 antibody h3G10.1.91.A58B was tested for its ability to increase survival and reduce tumor burden of NSG mice using a disseminated/systemic intravenous model of MM. The human MM cancer line OPM-2 was transduced with the luciferase gene (OPM-2-LUC) to allow for “in life” monitoring of tumor burden over time. Cells were cultured at 37° C. in a 5% CO2 incubator in RPMI 1640 media containing 10% fetal bovine serum with 0.5 μg/mL puromycin for luciferase expression selection. 4-6 week old NSG female mice were injected intravenously with OPM-2-Luc cells (5×10^6/animal).
On Day 8 post-cell implantation mice were randomized into three treatment groups (10 animals per group) based on total body bioluminescence intensity. Weekly subcutaneous (s.c.) antibody treatment at 10 mg/kg in a solution of sterile PBS was initiated and carried out for 5 weeks. Melphalan, one of the approved drugs for treatment of multiple myeloma patients, was dosed at 1 mg/kg, twice/week carried out for 3 weeks. Tumor burden was assessed using Xenogen IVIS 200 imaging system. Mice were imaged every 7 days in a ventral position and whole body bioluminescence was determined using Xenogen Living Image software. When mice began to show hind limb paralysis or reached other humane endpoints they were euthanized. Both tumor burden (by bioluminescence) and survival were evaluated as endpoints.

[1] = target: T1, human CXCR4-enriched lipoparticles (Homo sapiens, UniProt P61073); assay: Biosensor affinity measurement of Fabs on CXCR4-enriched lipoparticles; format: binding; conditions: Fab; kinetic titration
T1 construct: purchased Integral Molecular, Philadelphia Pa; LEV101
Description: One way of determining binding affinity of antibodies to CXCR4 is by measuring binding affinity of monofunctional Fab fragments of the antibody. To obtain monofunctional Fab fragments, an antibody (for example, IgG) can be cleaved with papain or expressed recombinantly. […] Biotinylated WGA can be coated on the SA chip to facilitate capturing Lipoparticles containing CXCR4 proteins. […] J. Mol. Recognit. 12, 279-284 (1999).
The concentrations of the Fab proteins are determined by ELISA and/or SDS-PAGE electrophoresis using a Fab of known concentration (as determined by amino acid analysis) as a standard. Kinetic association rates (kon) and dissociation rates (koff) are obtained simultaneously by fitting the data globally to a 1:1 Langmuir binding model (Karlsson, R. Roos, H. Fagerstam, L. Petersson, B. (1994). Methods Enzymology 6. 99-110) using the BIAevaluation program. Equilibrium dissociation constant (KD) values are calculated as koff/kon.
The binding affinity of each Fab was determined using human CXCR4-enriched lipoparticles (LEV101, Integral Molecular, Philadelphia Pa.). Biotinylated WGA (Sigma Aldrich, St. Louis Mo.)) can be coated on the SA chip to facilitate capturing lipoparticles containing CXCR4 proteins. […] J. Mol. Recognit. 12, 279-284 (1999).

[2] = target: T2, CXCR4 (CXCR4-expressing HPB-ALL cells) (Homo sapiens, UniProt P61073); assay: Flow cytometry binding of humanized 3G10 Fabs to HPB-ALL cells (Example 2); conditions: for MFI 0.25 μg/ml: Fab 0.25 μg/ml; for MFI 2.5 μg/ml: Fab 2.5 μg/ml
T2 construct: endogenous in cells; host or cells: HPB-ALL (human T cell leukemia)
Description: 150,000 cells were incubated with various h3G10 Fabs at either 2.5 or 0.25 μg/mL in 100 uL binding buffer (PBS+0.5% BSA), followed by incubation with APC-conjugated goat anti-human Fab-specific secondary antibody from R&D systems.

[3] = NSG mice, OPM-2-Luc i.v., antibody 10 mg/kg s.c. weekly for 5 weeks, Melphalan 1 mg/kg twice/week for 3 weeks
[4] = antibody 10 mg/kg s.c. weekly 5 weeks, Melphalan 1 mg/kg twice/week 3 weeks, isotype control 33.5 days

T2 sequence (P61073 whole entry): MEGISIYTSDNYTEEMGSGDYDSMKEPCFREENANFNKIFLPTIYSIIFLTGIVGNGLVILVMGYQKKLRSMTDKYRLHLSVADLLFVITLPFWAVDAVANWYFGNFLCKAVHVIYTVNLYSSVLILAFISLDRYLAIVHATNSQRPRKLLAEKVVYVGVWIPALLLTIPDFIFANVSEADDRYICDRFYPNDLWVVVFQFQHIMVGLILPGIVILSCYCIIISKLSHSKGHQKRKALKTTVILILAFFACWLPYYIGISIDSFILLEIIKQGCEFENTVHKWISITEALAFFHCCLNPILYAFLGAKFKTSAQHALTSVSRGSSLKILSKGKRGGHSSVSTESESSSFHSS
T1 sequence (P61073 whole entry): as above

Molecule	Ka (1/MS) [1]	Kd [1] [s⁻¹]	other results
N[C@@H](Cc1ccc(N(CCCl)CCCl)cc1)C(=O)O [Melphalan, reference compound]	–	–	median survival (OPM-2-Luc MM cells; [3]): 36 days; median survival (OPM-2-Luc MM cells; [4]): 36 days
B1	–	–	tumor growth (bioluminescence) compared to isotype control antibody (OPM-2-Luc MM cells; 10 mg/kg s.c. weekly for 5 weeks, p<0.0001 on Day 30): significantly inhibited tumor growth; median survival (OPM-2-Luc MM cells; [3]): Undefined; median survival (OPM-2-Luc MM cells; [4]): undefined
B2	2.30E+06 1/MS	0.0008	–
B3	1.17E+06 1/MS	0.00143	–
B4	6.88E+05 1/MS	0.000515	–
B5	–	–	MFI 0.25 μg/ml [2]: 4513; MFI 2.5 μg/ml [2]: 8908
B6	1.60E+06 1/MS	0.00063	–
B7	–	–	MFI 0.25 μg/ml [2]: 2094; MFI 2.5 μg/ml [2]: 8127
B8	–	–	MFI 0.25 μg/ml [2]: 2921; MFI 2.5 μg/ml [2]: 6830
B9	7.97E+05 1/MS	0.000449	–
B10	9.08E+05 1/MS	0.000341	–
B11	1.50E+06 1/MS	0.00049	–
B12	–	–	MFI 0.25 μg/ml [2]: 3792; MFI 2.5 μg/ml [2]: 8306
B13	1.29E+06 1/MS	0.000418	–
B14	1.10E+06 1/MS	0.0013	–
B15	1.60E+06 1/MS	0.003	–
B16	–	–	MFI 0.25 μg/ml [2]: 1251; MFI 2.5 μg/ml [2]: 4521
B17	8.03E+05 1/MS	0.000286	–
